Target: human telomerase (active telomerase from HeLa cell nuclear extract; catalytic subunit hTERT) (human) (UniProt O14746)
Experiment: cell-based or functional assay

Sequence of human telomerase (active telomerase from HeLa cell nuclear extract; catalytic subunit hTERT) (human) (O14746 whole entry): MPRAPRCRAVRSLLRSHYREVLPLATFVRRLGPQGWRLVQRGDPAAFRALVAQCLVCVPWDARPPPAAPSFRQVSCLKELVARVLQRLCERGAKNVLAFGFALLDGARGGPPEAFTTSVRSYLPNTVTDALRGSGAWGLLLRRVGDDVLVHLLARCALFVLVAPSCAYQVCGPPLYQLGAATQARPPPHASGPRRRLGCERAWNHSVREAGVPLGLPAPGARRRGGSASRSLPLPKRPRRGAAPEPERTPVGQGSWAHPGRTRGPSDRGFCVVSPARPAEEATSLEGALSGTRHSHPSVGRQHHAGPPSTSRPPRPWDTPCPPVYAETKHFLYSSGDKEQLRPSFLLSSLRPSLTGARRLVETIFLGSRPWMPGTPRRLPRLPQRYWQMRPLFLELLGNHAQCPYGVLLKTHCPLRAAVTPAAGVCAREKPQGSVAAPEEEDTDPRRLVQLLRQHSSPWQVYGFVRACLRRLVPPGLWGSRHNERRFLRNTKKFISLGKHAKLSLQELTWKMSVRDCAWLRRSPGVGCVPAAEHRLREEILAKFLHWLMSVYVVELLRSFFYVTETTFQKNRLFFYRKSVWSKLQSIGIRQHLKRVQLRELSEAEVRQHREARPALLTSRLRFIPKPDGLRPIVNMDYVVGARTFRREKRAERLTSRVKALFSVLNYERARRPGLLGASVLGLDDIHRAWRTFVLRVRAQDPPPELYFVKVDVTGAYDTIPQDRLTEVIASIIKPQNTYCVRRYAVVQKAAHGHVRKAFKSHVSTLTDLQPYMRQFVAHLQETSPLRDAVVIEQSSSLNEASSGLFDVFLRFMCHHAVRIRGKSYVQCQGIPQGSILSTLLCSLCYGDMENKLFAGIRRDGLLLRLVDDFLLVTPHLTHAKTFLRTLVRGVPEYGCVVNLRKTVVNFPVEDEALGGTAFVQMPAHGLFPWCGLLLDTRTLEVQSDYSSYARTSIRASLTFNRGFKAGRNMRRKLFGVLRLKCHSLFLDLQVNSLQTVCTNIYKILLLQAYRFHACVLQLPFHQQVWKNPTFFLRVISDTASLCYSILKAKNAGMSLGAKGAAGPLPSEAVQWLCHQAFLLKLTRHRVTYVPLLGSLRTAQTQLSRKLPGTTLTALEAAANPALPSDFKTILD

Substance: EST1-0732 (human EST1 protein of SEQ ID No 2) (from UniProt Q86US8 1-1419)
- telomerase activity immunoprecipitated by antibodies to SEQ ID No 7: 70%
